Results: patent US20190309079A1 (Regeneron, published 2019)
Read-outs that look alike come from different tables or passages of the source.

Tests used:
Test in all cases: cell-based or functional assay
[1] = biological target: T1, LEPR-A409E (signaling-defective mutant) on HEK293 reporter cells (human, UniProt P48357 22-1165)
T1 sequence: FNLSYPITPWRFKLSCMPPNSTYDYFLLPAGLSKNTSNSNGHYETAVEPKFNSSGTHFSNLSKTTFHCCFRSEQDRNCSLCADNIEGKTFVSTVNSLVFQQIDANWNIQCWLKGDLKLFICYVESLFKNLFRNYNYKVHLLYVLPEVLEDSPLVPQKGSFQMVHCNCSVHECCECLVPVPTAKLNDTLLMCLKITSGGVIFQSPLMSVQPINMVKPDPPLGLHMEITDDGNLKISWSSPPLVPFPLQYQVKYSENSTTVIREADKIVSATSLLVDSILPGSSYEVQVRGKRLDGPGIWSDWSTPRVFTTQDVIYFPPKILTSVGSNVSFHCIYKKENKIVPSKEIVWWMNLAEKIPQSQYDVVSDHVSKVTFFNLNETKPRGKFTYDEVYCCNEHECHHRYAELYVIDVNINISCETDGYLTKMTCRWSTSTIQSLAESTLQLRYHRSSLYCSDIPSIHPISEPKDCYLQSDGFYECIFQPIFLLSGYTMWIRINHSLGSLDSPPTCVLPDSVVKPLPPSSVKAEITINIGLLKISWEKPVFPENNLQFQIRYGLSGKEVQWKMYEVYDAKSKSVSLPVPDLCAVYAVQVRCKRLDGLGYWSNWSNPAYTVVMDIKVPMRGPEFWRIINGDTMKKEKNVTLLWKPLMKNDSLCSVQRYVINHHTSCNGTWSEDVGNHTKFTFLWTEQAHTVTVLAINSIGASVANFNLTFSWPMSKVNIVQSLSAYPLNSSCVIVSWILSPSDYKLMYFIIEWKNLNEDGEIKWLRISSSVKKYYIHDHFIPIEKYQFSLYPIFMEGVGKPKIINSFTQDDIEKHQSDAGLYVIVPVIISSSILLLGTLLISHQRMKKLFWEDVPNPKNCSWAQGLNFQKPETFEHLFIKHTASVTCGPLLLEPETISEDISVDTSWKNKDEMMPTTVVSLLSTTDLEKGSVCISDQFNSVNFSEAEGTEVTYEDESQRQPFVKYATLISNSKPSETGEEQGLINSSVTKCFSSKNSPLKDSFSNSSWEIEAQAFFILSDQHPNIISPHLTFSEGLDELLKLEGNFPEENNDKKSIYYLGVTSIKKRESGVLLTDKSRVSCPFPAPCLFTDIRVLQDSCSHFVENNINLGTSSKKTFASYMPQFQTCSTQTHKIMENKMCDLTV

[2] = biological target: T2, LEPR-P316T (signaling-impaired mutant) on HEK293 reporter cells (human, UniProt P48357 22-1165)
T2 sequence: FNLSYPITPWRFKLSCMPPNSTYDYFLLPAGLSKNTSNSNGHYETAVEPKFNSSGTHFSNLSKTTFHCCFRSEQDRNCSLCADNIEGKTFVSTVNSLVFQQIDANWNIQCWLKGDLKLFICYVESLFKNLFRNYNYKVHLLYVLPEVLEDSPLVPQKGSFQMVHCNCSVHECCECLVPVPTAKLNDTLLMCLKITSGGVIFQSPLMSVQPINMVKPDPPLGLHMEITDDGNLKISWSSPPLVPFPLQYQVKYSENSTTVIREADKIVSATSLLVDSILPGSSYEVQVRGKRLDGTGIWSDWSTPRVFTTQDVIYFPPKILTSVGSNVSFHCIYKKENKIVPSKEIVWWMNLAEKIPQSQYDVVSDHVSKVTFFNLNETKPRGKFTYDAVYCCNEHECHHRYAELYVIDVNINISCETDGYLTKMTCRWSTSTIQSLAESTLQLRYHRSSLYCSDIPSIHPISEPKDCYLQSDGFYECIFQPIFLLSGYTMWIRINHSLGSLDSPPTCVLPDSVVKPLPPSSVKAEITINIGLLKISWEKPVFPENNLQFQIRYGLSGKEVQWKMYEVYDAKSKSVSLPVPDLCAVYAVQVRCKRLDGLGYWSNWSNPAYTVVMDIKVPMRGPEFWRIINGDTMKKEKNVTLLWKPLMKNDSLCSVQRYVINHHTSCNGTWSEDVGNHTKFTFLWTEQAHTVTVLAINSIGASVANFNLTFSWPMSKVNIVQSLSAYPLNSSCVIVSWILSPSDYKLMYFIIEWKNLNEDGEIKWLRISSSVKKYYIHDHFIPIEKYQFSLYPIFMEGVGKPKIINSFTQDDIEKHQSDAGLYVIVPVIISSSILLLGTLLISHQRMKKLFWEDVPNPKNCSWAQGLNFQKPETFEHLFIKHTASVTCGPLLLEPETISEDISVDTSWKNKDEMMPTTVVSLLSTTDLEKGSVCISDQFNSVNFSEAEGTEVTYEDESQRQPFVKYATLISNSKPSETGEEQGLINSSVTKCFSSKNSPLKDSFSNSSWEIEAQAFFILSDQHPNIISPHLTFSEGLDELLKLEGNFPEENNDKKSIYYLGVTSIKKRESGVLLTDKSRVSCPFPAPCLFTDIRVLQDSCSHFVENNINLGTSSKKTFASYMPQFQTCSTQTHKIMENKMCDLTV

[3] = biological target: T1, LEPR-A409E (signaling-defective mutant) …; remark: listed apart in the source

Binder	EC50 (read off the curve), pSTAT3 Y705/STAT3 densitometry [1]	EC50 (read off the curve), pSTAT3 Y705/STAT3 densitometry [2]	EC50 (read off the curve), pSTAT3 Y705/STAT3 densitometry [3]
H4H16650P2 (antibody, V domains shown) VH: QVQLVESGGGVVQPGKSLRLSCVASGFTFSSDAMYWVRQAPGKGLEWVAVIYYDGNYQYYEDSVKGRFTISRDNSQNTLDLQMNSLRVDDTAVYFCARLNWDYWYLDLWGRGTLVTVSS VL: not shown	~2e-10 M	~4e-10 M	
H4H16679P2 (antibody, V domains shown) VH: QVQLVESGGGVVQPGRSLRLSCTASGFTFSSYAMYWVRQAPGKGLEWVSVIYYDGSYKYYADSVKGRFTISRDNSKNTLYLQMDSLRAEDTAVYYCASYNWNYWYFDFWGRGTLVTVSS VL: not shown			~6e-10 M
